Source: paper PMC3430366

Tests used:
[1] = biological target: TDPX1 Cys35Ala (Leishmania major (Friedlin strain)); experiment: SDS-PAGE after reduction or oxidation
[2] = biological target: TDPX1 Cys83Ala (Leishmania major (Friedlin strain)); experiment: SDS-PAGE after reduction or oxidation

Substance	stoichiometry N [1]	stoichiometry N [2]
TDPX1 Cys35Ala (enzyme)	2	
TDPX1 Cys83Ala (enzyme)		2
